Assay results from the Human Domainome abundance scans (Beltran et al. 2025).
± gives the uncertainty stated by the source.

B1: Zinc finger MYM-type protein 3, residues 405 to 444; numbered along this chain, Q14202 (parent)
chain: DATRCSICQKTGEVLHEVSNGSVVHRLCSDSCFSKFRANK
B2: Kinesin-like protein KIF16B, residues 1213 to 1273; numbered along this chain, Q96L93 (parent)
chain: ETWTVFRRYSRFREMHKTLKLKYAELAALEFPPKKLFGNKDERVIAERRSHLEKYLRDFFS

Variants of: B1
Assay: abundance fitness (aPCA) (normalised: wild type 0, dead -1); higher = more abundant; growth selection in yeast, the domain comes from the species named
Details: Homo sapiens

Abundance fitness, by site and new letter:
R37: A -0.003 ± 0.056, W -0.288 ± 0.07, Y -0.283 ± 0.15, N 0.135 ± 0.11, T 0.043 ± 0.064, I -0.512 ± 0.13, D 0.143 ± 0.08, E 0.395 ± 0.061, C -0.093 ± 0.071, H 0.137 ± 0.086, K 0.199 ± 0.067, V -0.23 ± 0.057, F -0.506 ± 0.088, S 0.048 ± 0.057, L -0.304 ± 0.058, P -0.18 ± 0.079, Q 0.106 ± 0.069
F33: P -0.186 ± 0.074, S -0.015 ± 0.058, Y -0.094 ± 0.1, N 0.01 ± 0.15, G -0.044 ± 0.05, R 0.106 ± 0.051, T -0.072 ± 0.065, I -0.067 ± 0.11, H 0.073 ± 0.095, K 0.03 ± 0.067, A 0.134 ± 0.055, D -0.016 ± 0.081, C -0.11 ± 0.15, W 0.154 ± 0.06, M 0.187 ± 0.065, E 0.175 ± 0.077, L 0.256 ± 0.054
C32: P -0.763 ± 0.13, V -0.742 ± 0.068, D -0.301 ± 0.1, F -0.968 ± 0.16, S -0.645 ± 0.079, N -0.808 ± 0.1, R -0.832 ± 0.071, G -0.576 ± 0.054, T -0.565 ± 0.1, I -0.587 ± 0.19, L -0.676 ± 0.076, K -0.727 ± 0.097, Q -0.345 ± 0.079, H -0.59 ± 0.11
N39: M 0.048 ± 0.07, H -0.212 ± 0.087, I -0.022 ± 0.089, G 0.017 ± 0.058, D -0.228 ± 0.13, Q 0.29 ± 0.078, R 0.081 ± 0.055, P 0.043 ± 0.073, S 0.003 ± 0.067, E 0.128 ± 0.076, W -0.192 ± 0.076, K 0.167 ± 0.083, A 0.015 ± 0.062, C -0.319 ± 0.11, T 0.112 ± 0.065, V 0.058 ± 0.066, L 0.037 ± 0.065
F36: V -0.085 ± 0.066, T -0.176 ± 0.07, M -0.296 ± 0.39, S -0.178 ± 0.064, I -0.061 ± 0.072, R -0.236 ± 0.054, G -0.206 ± 0.051, Y -0.22 ± 0.089, Q 0.002 ± 0.074, H -0.053 ± 0.1, E 0.029 ± 0.063, D -0.082 ± 0.084, W 0.147 ± 0.057, K -0.426 ± 0.1, A 0.042 ± 0.056, N -0.772 ± 0.14
K35: S 0.02 ± 0.058, T 0.058 ± 0.066, H -0.03 ± 0.084, W -0.84 ± 0.084, L -0.127 ± 0.055, F 0.052 ± 0.19, Q 0.146 ± 0.067, D 0.053 ± 0.076, C -0.959 ± 0.11, A 0.119 ± 0.054, P -0.471 ± 0.074, Y -0.175 ± 0.26, E 0.166 ± 0.056, M 0.078 ± 0.07, N 0.03 ± 0.34
K40: E 0.077 ± 0.09, G 0.211 ± 0.064, A -0.047 ± 0.11, V 0.112 ± 0.1, C 0.205 ± 0.16, I 0.012 ± 0.072, F -0.128 ± 0.15, R 0.023 ± 0.068, W -0.116 ± 0.14, Y -0.072 ± 0.45, T 0.138 ± 0.066, H 0.222 ± 0.08, P -0.12 ± 0.17, L -0.095 ± 0.11, N 0.15 ± 0.13, S 0.119 ± 0.086
S31: K 0.081 ± 0.086, G 0.055 ± 0.052, W -0.218 ± 0.066, V -0.032 ± 0.056, P -0.025 ± 0.072, H -0.16 ± 0.093, R 0.047 ± 0.053, L -0.022 ± 0.059, N -0.089 ± 0.095, Q 0.042 ± 0.075, I 0.064 ± 0.15, T 0.027 ± 0.082, M -0.006 ± 0.072
S34: T 0.125 ± 0.06, Y -1.01 ± 0.24, K 0.206 ± 0.068, C -0.729 ± 0.098, I -0.126 ± 0.12, R 0.076 ± 0.054, P -0.114 ± 0.064, A 0.203 ± 0.056, D 0.203 ± 0.1, F -0.18 ± 0.087, E 0.32 ± 0.062, G 0.137 ± 0.053, W -0.187 ± 0.075, M -0.039 ± 0.17, Q 0.382 ± 0.083, L -0.023 ± 0.061
A38: W -0.353 ± 0.059, M -0.033 ± 0.094, H -0.524 ± 0.15, V -0.233 ± 0.071, F -0.259 ± 0.16, R -0.199 ± 0.052, G 0.011 ± 0.05, N -0.461 ± 0.23, Y -0.338 ± 0.36, L -0.265 ± 0.078, S -0.2 ± 0.061, E 0.015 ± 0.059, D -0.139 ± 0.076, K -0.228 ± 0.086, I -0.215 ± 0.079, P -0.354 ± 0.068, Q -0.072 ± 0.064

Variants of: B2
Assay: as above
Details: Homo sapiens

Abundance fitness: each site, then its substitutions
F12: K -1.08 ± 0.25, E -0.941 ± 0.23, G -0.597 ± 0.083, I 0.068 ± 0.14, A -0.271 ± 0.12, C -0.164 ± 0.11
F6: V -0.107 ± 0.084, N -0.451 ± 0.12, M -0.443 ± 0.13, C -0.842 ± 0.23, Y -0.69 ± 0.14, I -0.044 ± 0.095, G -0.168 ± 0.061, K -0.442 ± 0.26, A -0.241 ± 0.088, T -0.352 ± 0.096, R -0.601 ± 0.072, P -0.227 ± 0.061, S -0.215 ± 0.064, D -0.474 ± 0.33, L -0.242 ± 0.073, Q -0.402 ± 0.18, H -0.541 ± 0.29, E -0.161 ± 0.12
T4: Q 0.119 ± 0.056, D 0.178 ± 0.091, C 0.079 ± 0.055, N 0.308 ± 0.045, H -0.406 ± 0.077, Y -0.139 ± 0.058, G 0.085 ± 0.046, E 0.223 ± 0.053, V -0.319 ± 0.05, R -0.256 ± 0.043, I -0.23 ± 0.079, W 0.033 ± 0.062, A -0.087 ± 0.057, M -0.077 ± 0.065, P -0.102 ± 0.049, K -0.15 ± 0.058, S 0.109 ± 0.029, F -0.124 ± 0.057, L -0.318 ± 0.045
V5: T 0.094 ± 0.078, A 0.161 ± 0.048, P -0.442 ± 0.22, R -0.041 ± 0.08, W 0.086 ± 0.13, I -0.044 ± 0.08, G 0.22 ± 0.06, D -0.156 ± 0.11, S -0.023 ± 0.086, E -0.486 ± 0.12, K 0.318 ± 0.25, Q -0.093 ± 0.05, L 0.035 ± 0.1, M 0.125 ± 0.055
R11: C 0.166 ± 0.13, D -0.231 ± 0.17, T -0.096 ± 0.084, P -0.133 ± 0.13, H -0.112 ± 0.13, N -0.122 ± 0.3, E -0.487 ± 0.081, Y -0.154 ± 0.29, S 0.09 ± 0.083, W 0.205 ± 0.066, V 0.246 ± 0.18, A 0.206 ± 0.12, G -0.03 ± 0.042, M 0.423 ± 0.19, L -0.059 ± 0.06
T2: G -0.721 ± 0.28, P 0.047 ± 0.094, N -0.286 ± 0.14, M -0.538 ± 0.09, W -0.146 ± 0.096, Y -0.352 ± 0.42, I 0.085 ± 0.12, L 0.274 ± 0.19, Q -0.541 ± 0.27, C -0.5 ± 0.47, S -0.523 ± 0.12, K -0.409 ± 0.14, V -0.165 ± 0.14, A -0.687 ± 0.3, E -0.18 ± 0.24
Y9: K -0.056 ± 0.073, P 0.129 ± 0.11, S 0.055 ± 0.06, W 0.076 ± 0.06, E -0.858 ± 0.19, G 0.245 ± 0.042, C 0.123 ± 0.091, R -0.27 ± 0.054, I 0.156 ± 0.16, T -0.201 ± 0.11, Q -0.446 ± 0.15, V 0.019 ± 0.059, M 0.163 ± 0.048, L 0.063 ± 0.098, A -0.119 ± 0.08, N 0.091 ± 0.34
W3: I -0.655 ± 0.18, C -0.761 ± 0.39, D -0.022 ± 0.12, G 0.039 ± 0.072, Y -0.424 ± 0.22, V -0.521 ± 0.19, T -0.432 ± 0.24, Q -0.771 ± 0.24, R -0.232 ± 0.06, N -0.024 ± 0.13, S -0.152 ± 0.13, F 0.086 ± 0.15, E -0.088 ± 0.13, M -0.274 ± 0.094, K -0.051 ± 0.092, L -0.45 ± 0.087, A -0.66 ± 0.14
R8: Q 0.057 ± 0.087, W 0.02 ± 0.086, M 0.284 ± 0.066, K 0.295 ± 0.055, A 0.334 ± 0.083, I 0.37 ± 0.076, H -0.198 ± 0.33, Y 0.048 ± 0.07, T 0.005 ± 0.079, P -0.092 ± 0.047, D -0.271 ± 0.13, G 0.097 ± 0.046, C 0.282 ± 0.056, N -0.31 ± 0.36, V 0.26 ± 0.063, S 0.12 ± 0.04, E -0.494 ± 0.085, L 0.317 ± 0.041
E1: W -0.421 ± 0.27, G -0.62 ± 0.39, K -0.26 ± 0.14, D -0.001 ± 0.12, N -0.153 ± 0.42, M -0.343 ± 0.48, L -0.75 ± 0.38, V -0.846 ± 0.21
R7: V -0.042 ± 0.056, G 0.186 ± 0.045, H 0.225 ± 0.23, C 0.084 ± 0.14, P -0.161 ± 0.14, M -0.04 ± 0.092, A 0.022 ± 0.078, Q 0.164 ± 0.097, N -0.131 ± 0.14, T -0.02 ± 0.14, S 0.141 ± 0.077, L -0.025 ± 0.068, K 0.227 ± 0.069, F 0.078 ± 0.11
S10: C 0.208 ± 0.13, Q -0.419 ± 0.13, K -0.317 ± 0.19, L -0.007 ± 0.074, D -0.224 ± 0.22, W -0.018 ± 0.061, E -0.758 ± 0.14, F 0.099 ± 0.062, P 0.135 ± 0.074, R -0.395 ± 0.081, A -0.095 ± 0.065, I -0.229 ± 0.11, Y -0.567 ± 0.13, H -1.1 ± 0.48, T 0.136 ± 0.069, V -0.167 ± 0.06
